The record followed here is paper PMC7526519 (2020).

Test [1] addresses SARS-CoV-2 receptor binding domain (RBD), His-tagged (SARS-CoV-2, UniProt P0DTC2 319-541). Put plainly: SPR. (SPR reads the build-up and loss of mass on a sensor chip optically.)
Test [2] deals with SARS-CoV receptor binding domain (RBD), His-tagged (SARS-CoV, UniProt P59594 306-527). Put plainly: SPR.

B1: cat ACE2 ectodomain fused with mouse Fc (Fc fusion)
chain: QSTTEELAKTFLEKFNHEAEELSYQSSLASWNYNTNITDENVQKMNEAGAKWSAFYEEQSKLAKTYPLAEIHNTTVKRQLQALQQSGSSVLSADKSQRLNTILNAMSTIYSTGKACNPNNPQECLLLEPGLDDIMENSKDYNERLWAWEGWRAEVGKQLRPLYEEYVALKNEMARANNYEDYGDYWRGDYEEEWTDGYNYSRSQLIKDVEHTFTQIKPLYQHLHAYVRAKLMDTYPSRISPTGCLPAHLLGDMWGRFWTNLYPLTVPFGQKPNIDVTDAMVNQSWDARRIFKEAEKFFVSVGLPNMTQGFWENSMLTEPGDSRKVVCHPTAWDLGKGDFRIKMCTKVTMDDFLTAHHEMGHIQYDMAYAVQPFLLRNGANEGFHEAVGEIMSLSAATPNHLKTIGLLSPGFSEDSETEINFLLKQALTIVGTLPFTYMLEKWRWMVFKGEIPKEQWMQKWWEMKREIVGVVEPVPHDETYCDPASLFHVANDYSFIRYYTRTIYQFQFQEALCRIAKHEGPLHKCDISNSSEAGKKLLQMLTLGKSKPWTLALEHVVGEKKMNVTPLLKYFEPLFTWLKEQNRNSFVGWNTDWRPYADQSIKVRISLKSALGDEAYEWNDNEMYLFRSSVAYAMREYFSKVKNQTIPFVEDNVWVSNLKPRISFNFFVTASKNVSDVIPRSEVEEAIRMSRSRINDAFRLDDNSLEFLGIQPTLSPPYQPPVT
Usually Kd stands for the concentration at which binding is half-saturated. High values mean weaker binding, low ones tighter binding. Consider B1, for which the figures for the Kd in test [1] and in test [2] were 85.7 nM and 69.9 nM, respectively.

B2: horse ACE2 ectodomain fused with mouse Fc (Fc fusion)
chain: QSTTEDLAKTFLEKFNSEAEELSHQSSLASWSYNTNITDENVQKMNEAGARWSAFYEEQCKLAKTYPLEEIQNLTVKRQLQALQQSGSSVLSADKSKLNEILNTMSTIYSTGKVCNPSNPQECLLLEPGLDAIMENSKDYNQRLWAWEGWRSEVGKQLRPLYEEYVVLKNEMARANNYEDYGDYWRGDYEAEGPSGYDYSRDQLIEDVERTFAEIKPLYEHLHAYVRAKLMDTYPSHINPTGCLPAHLLGDMWGRFWTNLYSLTVPFGQKPNIDVTDAMVDQSWDAKRIFEEAEKFFVSVGLPNMTQGFWENSMLTEPGDGRKVVCHPTAWDLGKGDFRIKMCTKVTMDDFLTAHHEMGHIQYDMAYAVQPYLLRNGANEGFHEAVGEIMSLSAATPNHLKAIGLLPPDFYEDSETEINFLLKQALTIVGTLPFTYMLEKWRWMVFKGEIPKEEWMKKWWEMKREIVGVVEPVPHDETYCDPAALFHVANDYSFIRYYTRTIYQFQFQEALCQTAKHEGPLHKCDISNSTEAGQKLLQMLSLGKSEPWTLALERIVGVKNMDVRPLLNYFEPLFTWLKDQNKNSFVGWSTNWSPYADQSIKVRISLKSALGEKSYEWNDNEMYLFQSSVAYAMRVYFLKAKNQTILFGEEDVWVSDLKPRISFNFFVTSPKNASDIIPRTDVEEAIRMSRSRINDAFRLDDNTLEFLGIQPTLGPPYQPPVT
Consider B2, for which the Kd in test [1] came to 133 nM; in test [2] it was 141 nM.

B3: alpaca ACE2 ectodomain fused with mouse Fc (Fc fusion)
chain: QSTTEELAKTFLKEFNHEAEDRSYQSSLASWNYNTNITDENVQKMNDARAKWSTFYEEKSKAAKIYPLEEIENVTLKRQLQALQQSGASALSADKSKRLTTILNTMSSIYSSGEVCDPNNPQECLVLEPGLDDIMENSKDYNQRLWAWEGWRAEVGKQLRPLYEEYVVLKNEMARANNYEDYGDYWRGDYEVMWAGDYDYSRDQLMGDVEHTFAEIKPLYEHLHAYVRAKLMDAYPSRISPTGCLPAHLLGDMWGRFWTNLYSLTVPFGQKPNIDVTEAMENQSWDAKRIFKEAEKFFVSIGLPNMTQGFWDNSMLTEPGDGRKVVCHPTAWDLGKGDFRIKMCTKVTMDDFLTAHHEMGHIQYDMAYAIQPFLLRNGANEGFHEAVGEIMSLSAATPHYLKALGLLPADFYEDSETEINFLLKQALTIVGTLPFTYMLEKWRWMVFKGEIPKEQWMQKWWEMKREIVGVVEPLPHDETYCDPACLFHVAEDYSFIRYYTRTIYQFQFHEALCQIAKHEGPLYKCDISNSTEAGQKLLQMLSLGKSEPWTLALEALVGVKTMDVKPLLNYFEPLLTWLKDQNRNSFVGWSTDWTPYTDQSIKVRISLKSALGDKAYEWNDNEMYLFRSSLAYAMRNYFLTVQKQTILFGVEDVWVSDLKPRISFSFFVTSPKNVSDIIPRTEVEKAIRMSRSRINDAFRLDDNSLEFLGIQPTLGPPYEPP
B3 registered a Kd in test [2] of 54.9 nM.

B4: wild Bactrian camel ACE2 ectodomain fused with mouse Fc (Fc fusion)
chain: QSTTEELAKTFLEEFNHEAEDLSYQSSLASWNYNTNITDENVQKMNDARAKWSTFYEEKSKTAKTYPLEEIQNVTLKRQLQALQQSGASALSADKSKRLTTVLSTMSTIYSSGEVCDPNNPQECLVLEPGLDDIMENSKDYNQRLWAWEGWRAEVGKQLRPLYEEYVVLKNEMARANNYEDYGDYWRGDYEVMWAGDYDYSRDQLMGDVEHTFAEIKPLYEHLHAYVRAKLMDVYPSHISPTGCLPAHLLGDMWGRFWTNLYSLTVPFGQKPNIDVTEAMENQSWDAKRIFKEAEKFFVSIGLPNMTQGFWDNSMLTEPGDGRKVVCHPTAWDLGKGDFRIKMCTKVTMDDFLTAHHEMGHIQYDMAYAIQPFLLRNGANEGFHEAVGEIMSLSAATPHYLKALGLLPADFYEDSETEINFLLKQALTIVGTLPFTYMLEKWRWMVFKGEIPKEQWMQKWWEMKREIVGVVEPLPHDETYCDPACLFHVAEDYSFIRYYTRTIYQFQFHEALCQIAKHEGPLYKCDISNSTEAGQKLLQMLSLGKSEPWTLALEGLVGVKTMDVKPLLNYFEPLLTWLKDQNRNSFVGWSTDWTPYTDQSIKVRISLKSALGDKAYEWNDNEMYLFQSSLAYAMRKYFLKVQNQTILFGVEDVWVSDLKPRISFSFFVTSPKNVSDIIPRTEVEEAIRMSRSRINDAFRLDDNSLEFLGIQPTLGPPYEPPVT
As for B4, the Kd was determined as 272 nM in test [1] and 69.1 nM in test [2].

B5: goat ACE2 ectodomain fused with mouse Fc (Fc fusion)
chain: QSTTEEQAKTFLEKFNHEAEDLSYQSSLASWNYNTNITDENVQKMNEARAKWSAFYEEQSRMARTYSLEEIQNLTLKRQLKALQHSGTSVLSAEKSKRLNMILNKMSTIYSTGKVLDPNTQECLALEPGLDDIMENSRDYNRRLWAWEGWRAEVGKQLRPLYEEYVVLENEMARANNYEDYGDYWRGDYEVTGAGDYDYSRDQLMKDVERTFAEIKPLYEQLHAYVRAKLMNTYPSYISPTGCLPAHLLGDMWGRFWTNLYSLTVPFEHKPSIDVTEKMKNQSWDAERIFKEAEKFFVSIGLPYMTQGFWNNSMLTEPGDGRKVVCHPTAWDLGKGDFRIKMCTKVTMDDFLTAHHEMGHIQYDMAYATQPYLLRNGANEGFHEAVGEIMSLSAATPHYLKALGLLAPDFYEDNETEINFLLKQALTIVGTLPFTYMLEKWRWMVFKGEIPKQQWMEKWWEMKREIVGVVEPLPHDETYCDPACLFHVAEDYSFIRYYTRTIYQFQFHEALCKTAKHEGALFKCDISNSTEAGQRLLQMLRLGKSEPWTLALENIVGIKTMDVKPLLNYFEPLFTWLKEQNRNSFVGWSTEWTPYSDQSIKVRISLKSALGENAYEWNDNEMYLFRSSVAYAMRKYFLEDRNETIPFGEENVWVSDKKPRISFKFFVTSPNNVSDIIPRTEVENAIRLCRDRINDAFQLDDNSLEFLGIQPTLRPPYEPPVT
With B5, the Kd was 157 nM in test [1] and 308 nM in test [2].

B6: sheep ACE2 ectodomain fused with mouse Fc (Fc fusion)
chain: QSTTEGQAKTFLEKFNHEAEDLSYQSSLASWNYNTNITDENVQKMNEARAKWSAFYEEQSRMARTYSLEEIQNLTLKRQLKALQHSGTSVLSAEKSKRLNTILNKMSTIYSTGKVLDPNTQECLALEPGLDDIMENSRDYNRRLWAWEGWRAEVGKQLRPLYEEYVVLENEMARANNYEDYGDYWRGDYEVTGAGDYDYSRDQLMKDVERTFEEIKPLYEQLHAYVRAKLMDTYPSYISPTGCLPAHLLGDMWGRFWTNLYSLTVPFEHKPSIDVTEKMKNQSWDAERIFKEAEKFFVSIGLPYMTQGFWDNSMLTEPGDGRKVVCHPTAWDLGKGDFRIKMCTKVTMDDFLTAHHEMGHIQYDMAYATQPYLLRNGANEGFHEAVGEIMSLSAATPHYLKALGLLAPDFYEDNETEINFLLKQALTIVGTLPFTYMLEKWRWMVFKGEIPKQQWMEKWWEMKREIVGVVEPLPHDETYCDPACLFHVAEDYSFIRYYTRTIYQFQFHEALCKTAKHEGALFKCDISNSTEAGQRLLQMLRLGKSEPWTLALENIVGIKTMDVKPLLNYFEPLFTWLKEQNRNSFVGWSTEWTPYSDQSIKVRISLKSALGENAYEWNDNEMYLFRSSVAYAMRKYFLKERNETIPFGEENVWVSDKKPRISFKFFVTSPNNVSDIIPRTEVENAIRLCRDRINDAFQLDDNSLEFLGIQPTLRPPYEPPVT
For the molecule B6, the Kd in test [1] was determined as 137 nM; in test [2], 157 nM.

B7: dog ACE2 ectodomain fused with mouse Fc (Fc fusion)
chain: QSTEDLVKTFLEKFNYEAEELSYQSSLASWNYNINITDENVQKMNNAGAKWSAFYEEQSKLAKTYPLEEIQDSTVKRQLRALQHSGSSVLSADKNQRLNTILNSMSTVYSTGKACNPSNPQECLLLEPGLDDIMENSKDYNERLWAWEGWRSEVGKQLRPLYEEYVALKNEMARANNYEDYGDYWRGDYEEEWENGYNYSRNQLIDDVELTFTQIMPLYQHLHAYVRTKLMDTYPSYISPTGCLPAHLLGDMWGRFWTNLYPLTVPFGQKPNIDVTNAMVNQSWDARKIFKEAEKFFVSVGLPNMTQEFWGNSMLTEPSDSRKVVCHPTAWDLGKGDFRIKMCTKVTMDDFLTAHHEMGHIQYDMAYAAQPFLLRNGANEGFHEAVGEIMSLSAATPNHLKNIGLLPPSFFEDSETEINFLLKQALTIVGTLPFTYMLEKWRWMVFKGEIPKDQWMKTWWEMKRNIVGVVEPVPHDETYCDPASLFHVANDYSFIRYYTRTIYQFQFQEALCQIAKHEGPLHKCDISNSSEAGQKLLEMLKLGKSKPWTYALEIVVGAKNMDVRPLLNYFEPLFTWLKEQNRNSFVGWNTDWSPYADQSIKVRISLKSALGEKAYEWNNNEMYLFRSSIAYAMRQYFSEVKNQTIPFVEDNVWVSDLKPRISFNFSVTSPGNVSDIIPRTEVEEAIRMYRSRINDVFRLDDNSLEFLGIQPTPGPPYEPPVT
Consider B7, for which the Kd in test [1] is 98.9 nM; in test [2], 20 nM.

B8: fulvous fruit bat ACE2 ectodomain fused with mouse Fc (Fc fusion)
chain: QSTPEELAKTFLEKFNTEAEDLFYQSSLASWDFNTNIIDENVQKMSKARATWSAFYDEQSKLAKTYQLDEIQDPELKLQLRILQQSGSSTLSADKTKRLNDILNTMSTIYSTGKICQPNNSQECLLLEPGLDDIMENSKDYSQRLWAWESWRSEVGKQLRPYYEEYVVLKNEMARGENYEDYGDYWRGDYETEGINGSAYTRDQLIEDVDRIFTEIKPLYEQLHAYVRTKLMDAYPSHISPTGCLPAHLLGDMWGRFWINLYPLTVPFEQKPNIDVTDEMVNQNWNAKRIFKEAEKFFVSLGLPNMTETFWEKSVLTEPDNDQKVACHPTAWDLGKGDFRIIMCTKVKMEDFLTAHHEMGHIQYYMAYATQPYLLRDGANEGFHEAVGEVISLSVATPNHLKNMGLLPPDFYEDNETEINFLLKQALNVVGTLPFTYMLEKWRWMVFKGEIPKEQWMEKWWEMKRELVGVVEPLPHDETYCDPASLFHVANDYSFIRYYTRTIFEFQFLEALCQIAQHEGPLYKCDIANSTEAGKKLHQMLSLGKSKPWTLALESIAGTKNMDVRPLLNYFEPLFTWLKEKNRNSFVGWSTDWSPYSGQSIKVRISLKAALGEKAYEWNDNEMYLFKSSIAYSLREYFLKVKNLTIPFGEEDVWVSDLKPRISFNFFVTSPQNVSEFIPRTEVEGAIRMSRSRINDAFRLDDDTLEFLGIEPTLGTPYQPPVT
Consider B8, for which the Kd in test [1] stood at 1130 nM; in test [2], 412 nM.
